The record followed here is US20050214312A1.

The test has as its target recombinant human or murine heat shock protein 70 (hsp70) (human or murine).

B1: RGYVYQGL (VSV nucleoprotein amino acids 52-59) (peptide)
peptide: RGYVYQGL
modifications: not checked
For B1, the Kd (usually the concentration at which binding is half-saturated) was determined as 82 µM.
